Measurements as given in patent publication US20210077621A1 (published 2021).

Target: human MASP-2 (human, UniProt O00187 16-686)
Assay: cell-based or functional assay

Chain of human MASP-2 (O00187 16-686): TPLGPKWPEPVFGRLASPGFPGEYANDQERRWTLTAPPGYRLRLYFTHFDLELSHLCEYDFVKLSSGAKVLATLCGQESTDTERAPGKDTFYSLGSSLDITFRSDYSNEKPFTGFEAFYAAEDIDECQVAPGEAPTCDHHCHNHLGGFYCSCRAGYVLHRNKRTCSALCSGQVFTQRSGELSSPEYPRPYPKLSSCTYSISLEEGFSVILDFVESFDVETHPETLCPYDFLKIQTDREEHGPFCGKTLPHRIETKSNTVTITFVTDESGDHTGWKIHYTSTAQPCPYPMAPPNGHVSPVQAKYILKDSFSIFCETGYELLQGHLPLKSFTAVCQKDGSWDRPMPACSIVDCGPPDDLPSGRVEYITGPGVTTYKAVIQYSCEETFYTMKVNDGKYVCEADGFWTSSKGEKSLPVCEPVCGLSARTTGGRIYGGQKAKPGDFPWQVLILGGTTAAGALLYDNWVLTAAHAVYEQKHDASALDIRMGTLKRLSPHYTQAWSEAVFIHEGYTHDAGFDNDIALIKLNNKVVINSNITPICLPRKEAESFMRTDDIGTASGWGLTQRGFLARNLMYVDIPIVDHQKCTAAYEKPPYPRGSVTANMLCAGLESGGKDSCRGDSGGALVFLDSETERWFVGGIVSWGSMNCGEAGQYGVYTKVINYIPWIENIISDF

B1: 17D20m_d3521N11 (scFv, V domains shown)
VH: QVTLKESGPVLVKPTETLTLTCTVSGFSLSRGKMGVSWIRQPPGKALEWLAHIFSSDEKSYRTSLKSRLTISKDTSKNQVVLTMTNMDPVDTATYYCARIRRGGIDYWGQGTLVTVSS
VL: SYELIQPPSVSVAPGQTATITCAGDNLGKKRVHWYQQRPGQAPVLVIYDDSDRPSGIPDRFSASNSGNTATLTITRGEAGDEADYYCQVWDIATDHVVFGGGTKLTVL
Q: How did the “1% human serum C3 assay (IC50 nM)” value turn out when B1 was run?
A: 26 nM

Q: And the “90% human serum C3 assay (IC50 nM)” value?
A: > 1000 nM

Q: And the “90% human serum C4 assay (IC50 nM)” value?
A: 140 nM
